# Data as given in patent US20230002480A1.
# How the values were obtained:
# Test in all cases: cell-based or functional assay
# [1] = target: HIV-1 Env of pseudovirus 211-9 (clade CRF02_AG) (HIV-1)
# [2] = target: HIV-1 Env of pseudovirus BJOX010000.06.2 (clade CRF01_AE (T/F)) (HIV-1)
# [3] = target: HIV-1 Env of pseudovirus BJOX015000.11.5 (clade CRF01_AE (T/F)) (HIV-1)
# [4] = target: HIV-1 Env of pseudovirus BJOX028000.10.3 (clade CRF01_AE (T/F)) (HIV-1)
# [5] = target: HIV-1 Env of pseudovirus C1080.c03 (clade CRF01_AE) (HIV-1)
# [6] = target: HIV-1 Env of pseudovirus C3347.c11 (clade CRF01_AE) (HIV-1)
# [7] = target: HIV-1 Env of pseudovirus CNE5 (clade CRF01_AE) (HIV-1)
# [8] = target: HIV-1 Env of pseudovirus X1193_c1 (clade G) (HIV-1)
# [9] = target: HIV-1 Env of pseudovirus 7030102001E5(Rev-) (clade C (T/F)) (HIV-1)
# [10] = target: HIV-1 Env of pseudovirus AC10.0.29 (clade B) (HIV-1)
# [11] = target: HIV-1 Env of pseudovirus CAP45.2.00.G3 (clade C) (HIV-1)
# [12] = target: HIV-1 Env of pseudovirus CNE30 (clade BC) (HIV-1)
# [13] = target: HIV-1 Env of pseudovirus Ce1176_A3 (clade C (T/F)) (HIV-1)
# [14] = target: HIV-1 Env of pseudovirus Ce2060_G9 (clade C (T/F)) (HIV-1)
# [15] = target: HIV-1 Env of pseudovirus Du156.12 (clade C) (HIV-1)
# [16] = target: HIV-1 Env of pseudovirus HIV-16845-2.22 (clade C) (HIV-1)
# [17] = target: HIV-1 Env of pseudovirus PVO.4 (clade B) (HIV-1)
# [18] = target: HIV-1 Env of pseudovirus Q259.d2.17 (clade A) (HIV-1)
# [19] = target: HIV-1 Env of pseudovirus SC05_8C11_2344 (clade B (T/F)) (HIV-1)
# [20] = target: HIV-1 Env of pseudovirus SC422661.8 (clade B) (HIV-1)
# [21] = target: HIV-1 Env of pseudovirus TRO.11 (clade B) (HIV-1)
# [22] = target: HIV-1 Env pseudovirus 0260.v5.c36 (HIV-1)
# [23] = target: HIV-1 Env pseudovirus 263-8 (HIV-1)
# [24] = target: HIV-1 Env pseudovirus 3817.v2.c59 (HIV-1)
# [25] = target: HIV-1 Env pseudovirus 6952.v1.c20 (HIV-1)
# [26] = target: HIV-1 Env pseudovirus 928-28 (HIV-1)
# [27] = target: HIV-1 Env pseudovirus BJOX010000.06.2 (HIV-1)
# [28] = target: HIV-1 Env pseudovirus BJOX025000.01.1 (HIV-1)
# [29] = target: HIV-1 Env pseudovirus C3347.c11 (HIV-1)
# [30] = target: HIV-1 Env pseudovirus R2184.c04 (HIV-1)
# [31] = target: HIV-1 Env pseudovirus T250-4 (HIV-1)
# [32] = target: HIV-1 Env pseudovirus T278-50 (HIV-1)
substance,measurement,setting,value
10-1074 (antibody),"IC50, titer in TZM.bl cells",[1],0.112 µg/mL
same,"IC80, titer in TZM.bl cells",[1],0.425 µg/mL
same,"IC50, titer in TZM.bl cells",[2],> 50 µg/mL
same,"IC80, titer in TZM.bl cells",[2],> 50 µg/mL
same,"IC50, titer in TZM.bl cells",[3],> 50 µg/mL
same,"IC80, titer in TZM.bl cells",[3],> 50 µg/mL
same,"IC50, titer in TZM.bl cells",[4],> 50 µg/mL
same,"IC80, titer in TZM.bl cells",[4],> 50 µg/mL
same,"IC50, titer in TZM.bl cells",[5],> 50 µg/mL
same,"IC80, titer in TZM.bl cells",[5],> 50 µg/mL
same,"IC50, titer in TZM.bl cells",[6],> 50 µg/mL
same,"IC80, titer in TZM.bl cells",[6],> 50 µg/mL
same,"IC50, titer in TZM.bl cells",[7],> 50 µg/mL
same,"IC80, titer in TZM.bl cells",[7],> 50 µg/mL
same,"IC50, titer in TZM.bl cells",[8],0.083 µg/mL
same,"IC80, titer in TZM.bl cells",[8],0.475 µg/mL
10E8 (antibody),"IC50, titer in TZM.bl cells",[1],1.09 µg/mL
same,"IC80, titer in TZM.bl cells",[1],6.51 µg/mL
same,"IC50, titer in TZM.bl cells",[2],0.341 µg/mL
same,"IC80, titer in TZM.bl cells",[2],5.29 µg/mL
same,"IC50, titer in TZM.bl cells",[3],0.051 µg/mL
same,"IC80, titer in TZM.bl cells",[3],1.91 µg/mL
same,"IC50, titer in TZM.bl cells",[4],0.665 µg/mL
same,"IC80, titer in TZM.bl cells",[4],7.36 µg/mL
same,"IC50, titer in TZM.bl cells",[5],0.061 µg/mL
same,"IC80, titer in TZM.bl cells",[5],0.731 µg/mL
same,"IC50, titer in TZM.bl cells",[6],0.016 µg/mL
same,"IC80, titer in TZM.bl cells",[6],0.167 µg/mL
same,"IC50, titer in TZM.bl cells",[7],1.41 µg/mL
same,"IC80, titer in TZM.bl cells",[7],9.64 µg/mL
same,"IC50, titer in TZM.bl cells",[8],0.497 µg/mL
same,"IC80, titer in TZM.bl cells",[8],4.2 µg/mL
N49P7.2 (antibody),IC50,[9],0.313 µg/mL
same,IC80,[9],1.03 µg/mL
same,MPI,[9],100
same,IC50,[10],44.2 µg/mL
same,IC80,[10],> 50 µg/mL
same,MPI,[10],53
same,IC50,[11],0.162 µg/mL
same,IC80,[11],2.49 µg/mL
same,MPI,[11],95
same,IC50,[12],0.362 µg/mL
same,IC80,[12],1.2 µg/mL
same,MPI,[12],100
same,IC50,[13],0.332 µg/mL
same,IC80,[13],1.08 µg/mL
same,MPI,[13],100
same,IC50,[14],0.821 µg/mL
same,IC80,[14],2.81 µg/mL
same,MPI,[14],100
same,IC50,[15],0.058 µg/mL
same,IC80,[15],0.21 µg/mL
same,MPI,[15],100
same,IC50,[16],3.91 µg/mL
same,IC80,[16],18.2 µg/mL
same,MPI,[16],98
same,IC50,[17],0.237 µg/mL
same,IC80,[17],0.831 µg/mL
same,MPI,[17],100
same,IC50,[18],38.5 µg/mL
same,IC80,[18],> 50 µg/mL
same,MPI,[18],54
same,IC50,[19],0.326 µg/mL
same,IC80,[19],1.14 µg/mL
same,MPI,[19],100
same,IC50,[20],0.119 µg/mL
same,IC80,[20],0.564 µg/mL
same,MPI,[20],100
same,IC50,[21],0.113 µg/mL
same,IC80,[21],0.306 µg/mL
same,MPI,[21],100
N49P9 (antibody),IC50,[22],0.466 µg/mL
same,IC80,[22],1.85 µg/mL
same,MPI,[22],100
same,IC50,[23],0.032 µg/mL
same,IC80,[23],0.161 µg/mL
same,MPI,[23],100
same,IC50,[24],1.09 µg/mL
same,IC80,[24],5.86 µg/mL
same,MPI,[24],100
same,IC50,[25],0.095 µg/mL
same,IC80,[25],0.258 µg/mL
same,MPI,[25],100
same,IC50,[26],0.094 µg/mL
same,IC80,[26],0.339 µg/mL
same,MPI,[26],100
same,IC50,[27],0.482 µg/mL
same,IC80,[27],2.34 µg/mL
same,MPI,[27],100
same,IC50,[28],0.055 µg/mL
same,IC80,[28],0.252 µg/mL
same,MPI,[28],100
same,IC50,[29],0.023 µg/mL
same,IC80,[29],0.065 µg/mL
same,MPI,[29],100
same,IC50,[30],0.015 µg/mL
same,IC80,[30],0.034 µg/mL
same,MPI,[30],100
same,IC50,[31],> 50 µg/mL
same,IC80,[31],> 50 µg/mL
same,MPI,[31],25
same,IC50,[32],> 50 µg/mL
same,IC80,[32],> 50 µg/mL
same,MPI,[32],25
N49P9.1 (antibody),IC50,[22],0.519 µg/mL
same,IC80,[22],0.151 µg/mL
same,MPI,[22],100
same,IC50,[23],0.049 µg/mL
same,IC80,[23],0.17 µg/mL
same,MPI,[23],100
same,IC50,[24],1.35 µg/mL
same,IC80,[24],8.26 µg/mL
same,MPI,[24],95
same,IC50,[25],0.119 µg/mL
same,IC80,[25],0.389 µg/mL
same,MPI,[25],100
same,IC50,[26],0.163 µg/mL
same,IC80,[26],0.695 µg/mL
same,MPI,[26],100
same,IC50,[27],0.883 µg/mL
same,IC80,[27],4.26 µg/mL
same,MPI,[27],100
same,IC50,[28],0.131 µg/mL
same,IC80,[28],0.67 µg/mL
same,MPI,[28],100
same,IC50,[29],0.029 µg/mL
same,IC80,[29],0.083 µg/mL
same,MPI,[29],100
same,IC50,[30],0.019 µg/mL
same,IC80,[30],0.057 µg/mL
same,MPI,[30],100
same,IC50,[31],> 50 µg/mL
same,IC80,[31],> 50 µg/mL
same,MPI,[31],7
same,IC50,[32],> 50 µg/mL
same,IC80,[32],> 50 µg/mL
same,MPI,[32],5
